According to patent US20050042747A1, “Hivgp120-induced bob/gpr15 activation” (priority 2001, published 2005):

Tests used:
Parameters in all cases: key: — = no calcium flux seen at any dilution tested
[1] = target: T1, CXCR4 (Homo sapiens, UniProt P61073); experiment: gp120-induced calcium flux, Ghost (3) cells transfected with CXCR4; assay type: cell-based; conditions: Ghost (3) CXCR4 cells
T1 construct: host or cells: Ghost (3) cells (human osteosarcoma, CD4+)
Method: (§1) Calcium studies were done on HT-29 cells and Ghost (3) cells loaded with Fluo 4. The cells were placed in Locke's buffer containing 5 μg/ml Fluo 4 AM ester (Molecular Probes) for 20 to 30 minutes, then in Locke's buffer for an additional 30 minutes before testing. Various concentrations of gp120IIIB (X4 trophic), gp120CM235 (R5 trophic), gp120mN (X4 trophic), gp12093TH975 (nonsyncytium-inducing primary isolate from an asymptomatic subject, trophism undetermined but likely R5), and gp120SF2 (X4R5 trophic), ranging from 10 nM to less than 1 pM, were added in Locke's buffer.^6 The gp120 proteins were obtained from the AIDS Research Reagent Referral Program. Some HT-29 cells were given one of the following pretreatments: 50 μg/ml anti-Bob37 overnight, 1 μg/ml pertussis toxin overnight, or 4.6 μg/ml U73122 for one hour. With the HT-29 cells only, similar tests were also performed with SDF-1, MIP-1α, MIP-1β, and RANTES rather than gp120. The cells were visualized every 4 seconds in a confocal microscope, using 488 nm argon laser excitation and detection filters appropriate for fluorescein-like dyes.
(§2) Human osteosarcoma cell lines were transfected to express CD4, one or another of the HIV coreceptors, and a Green Fluorescent Protein reporter for active HIV infection, for the purpose of testing which of the known coreceptors was used to induce HIV infection by a given HIV strain (Morner A. J Virol 73:2343-9, 1999 and Deng K Nature 388:296-300, 1997). These cells were obtained from the AIDS Research and Reference Reagent Program, courtesy of Dr. Vineet KewalRamani and Dr. Dan Littman. These cells were grown in DMEM with 10% bovine calf serum supplemented with 0.5 mg/ml G418, 0.1 mg/ml hygromycin, and 1 microgram/ml puromycin, and were used at low passage number (less than 10). We have discovered that these cell lines are also activated by gp120 of certain viral strains, inducing a calcium flux in these cells.
(§3) Within 4 days of plating, coreceptor-transfected Ghost (3) cells (as well as the parent cell line not transfected to express any HIV coreceptors as a control) were put in Locke's medium, then treated with Fluo-4 (5 micrograms/ml for 30 minutes at 37° C.). After an additional 30 minute incubation in Locke's buffer at room temperature, the cells were examined in a confocal microscope while gp120 of various viral strains was added, and the cells were examined at 4 second intervals to look for a gp120-induced calcium flux. The results are given in the following table, expressed as the minimal concentration of gp120 resulting in a significant calcium flux. “−” means that no reproducible calcium flux was observed. “ND” means that the gp120 of that viral strain was not tested with the stated coreceptor. […]

[2] = target: T2, CCR4 (Homo sapiens, UniProt P51679); experiment: gp120-induced calcium flux, Ghost (3) cells transfected with CCR4; assay type: cell-based; conditions: Ghost (3) CCR4 cells
T2 construct: host or cells: Ghost (3) cells (human osteosarcoma, CD4+)
T2 sequence (P51679 1-360): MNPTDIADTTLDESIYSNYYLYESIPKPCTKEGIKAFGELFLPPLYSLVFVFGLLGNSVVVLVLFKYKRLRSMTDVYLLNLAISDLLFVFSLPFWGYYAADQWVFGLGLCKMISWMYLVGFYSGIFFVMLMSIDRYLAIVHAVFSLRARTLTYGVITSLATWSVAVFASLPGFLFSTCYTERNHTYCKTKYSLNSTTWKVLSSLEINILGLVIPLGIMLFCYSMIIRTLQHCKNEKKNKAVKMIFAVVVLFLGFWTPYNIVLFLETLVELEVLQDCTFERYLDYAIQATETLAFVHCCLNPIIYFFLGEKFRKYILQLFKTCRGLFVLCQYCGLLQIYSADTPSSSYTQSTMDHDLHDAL
Source text: as §2
(§4) Within 4 days of plating, coreceptor-transfected Ghost (3) cells (as well as the parent cell line not transfected to express any HIV coreceptors as a control) were put in Locke's medium, then treated with Fluo-4 (5 micrograms/ml for 30 minutes at 37° C.). […] The results are given in the following table, expressed as the minimal concentration of gp120 resulting in a significant calcium flux. […]

[3] = target: T3, CXCR6/Bonzo (Homo sapiens, UniProt O00574); experiment: gp120-induced calcium flux, Ghost (3) cells transfected with CXCR6/Bonzo; assay type: cell-based; conditions: Ghost (3) CXCR6/Bonzo cells
T3 construct: host or cells: Ghost (3) cells (human osteosarcoma, CD4+)
Source text: as §2, §4

[4] = target: T4, CX3CR1 (Homo sapiens, UniProt P49238); experiment: gp120-induced calcium flux, Ghost (3) cells transfected with CX3CR1; assay type: cell-based; conditions: Ghost (3) CX3CR1 cells
T4 construct: host or cells: Ghost (3) cells (human osteosarcoma, CD4+)
T4 sequence (P49238 1-355): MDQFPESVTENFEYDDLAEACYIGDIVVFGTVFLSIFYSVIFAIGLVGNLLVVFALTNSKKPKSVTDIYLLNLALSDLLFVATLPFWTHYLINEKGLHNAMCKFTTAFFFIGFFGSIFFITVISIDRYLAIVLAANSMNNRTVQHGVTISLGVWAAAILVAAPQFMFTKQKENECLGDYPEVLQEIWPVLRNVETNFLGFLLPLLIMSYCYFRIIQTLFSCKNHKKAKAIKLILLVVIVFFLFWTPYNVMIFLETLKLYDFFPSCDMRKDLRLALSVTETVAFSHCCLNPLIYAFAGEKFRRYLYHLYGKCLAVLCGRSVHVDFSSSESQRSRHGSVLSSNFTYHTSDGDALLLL
Source text: as §2, §4

[5] = target: T5, CCR8 (Homo sapiens, UniProt P51685); experiment: gp120-induced calcium flux, Ghost (3) cells transfected with CCR8; assay type: cell-based; conditions: Ghost (3) CCR8 cells
T5 construct: host or cells: Ghost (3) cells (human osteosarcoma, CD4+)
Source text: as §2, §4

[6] = test system: Ghost (3) parental cell line; experiment: gp120-induced calcium flux, Ghost (3) parental cell line; assay type: cell-based, human
Method: as §1, §2, §3

Substance	minimal concentration of gp120 resulting in a significant calcium flux [1]	minimal concentration of gp120 resulting in a significant calcium flux ([1]; listed as IIIB)	minimal concentration of gp120 resulting in a significant calcium flux [2]	minimal concentration of gp120 resulting in a significant calcium flux [3]	minimal concentration of gp120 resulting in a significant calcium flux [4]	minimal concentration of gp120 resulting in a significant calcium flux [5]	minimal concentration of gp120 resulting in a significant calcium flux ([6]; Ghost (3) parental line (expresses CXCR4 at very low levels))	minimal concentration of gp120 resulting in a significant calcium flux ([6]; Ghost (3) parental line (expresses CXCR4 at very low levels), listed as IIIB)	minimal concentration of gp120 resulting in a significant calcium flux ([6]; Ghost (3) parental line)
gp120IIIB: HIV-1 envelope surface protein gp120 of strain IIIB (X4 trophic), from the AIDS Research Reagent Referral Program	at least 150 pM	150 pM	—	—	—	—	about 1 nM	250 nM	
gp120SF2: gp120 of HIV strain SF2 (X4R5 trophic)	—		—	—	—	—			—
